Consider two molecules from patent US20020045205A1, “Method for autoactivation of procaspase 8” (priority 1998, published 2002).

A short description of series [1]: Cleavage of chromogenic and fluorogenic caspase substrates. The following applies: substrates Ac-DEVD-pNA, Ac-IETD-pNA, Ac-DEVD-AMC. The format is biochemical, human. An excerpt:
Enzyme activity of caspase 8 preparations was monitored using the chromogenic substrates Ac-DEVD-pNA or Ac-IETD-pNA or the fluorogenic substrates Ac-DEVD-AMC or Ac-IETD-AMC. For the chromogenic substrates, kinetic release of para-nitroaniline (pNA) was followed at 405 nm using either a Lambda 6 spectrophotometer or in a microtitre plate format using a Molecular Devices Thermomax plate reader with 405 nm wavelength filter. Kinetic enzyme assays monitoring the release of 7-amino-4-methyl-coumarin from the fluorogenic substrates were conducted using a Molecular Devices fmax plate reader with Ex=355 nm and Em=460 nm.

Substrate in series [2]: CC(=O)N[C@@H](CC(=O)O)C(=O)N[C@@H](CCC(=O)O)C(=O)N[C@H](C(=O)N[C@@H](CC(=O)O)C(=O)Nc1ccc([N+](=O)[O-])cc1)C(C)C
In words: Substrate Km in caspase 8 enzyme assay. Conditions: other: 100 mM sodium phosphate/10 mM Tris/100 mM DTT, pH 7.50, 37° C., pH 7.5. The class given is biochemical, human. The procedure: Unless otherwise indicated, all specific enzyme activity measurements described herein were made using the Ac-DEVD-pNA substrate. […] Initial rates were determined as follows: 100 μl of 1M DTT, 790 μl 100 mM sodium phosphate/10 mM Tris, pH 7.50, and 10 μl of caspase 8 sample solution (for protein concentrations near 0.5 mg/ml) were added to a quartz semi-micro cuvette.

B1: Concentrated, but unprocessed, protein: recombinant procaspase 8 polypeptide lacking the DED prodomain, with (His)6 tag, SEQ ID NO:1 (protein, listed as Homo sapiens)
chain: MRGSHHHHHHGSMTISDSPREQDSESQTLDKVYQMKSKPRGYCLIINNHNFAKAREKVPKLHSIRDRNGTHLDAGALTTTFEELHFEIKPHDDCTVEQIYEILKIYQLMDHSNMDCFICCILSHGDKGIIYGTDGQEAPIYELTSQFTGLKCPSLAGKPKVFFIQACQGDNYQKGIPVETDSEEQPYLEMDLSSPQTRYIPDEADFLLGMATVNNCVSYRNPAEGTWYIQSLCQSLRERCPRGDDILTILTEVNYEVSNKDDKKNMGKQMPQPTFTLRKKLVFPSD
modifications: (His)6 tag
Take B1: the “activity against caspase substrates” value in series [1] is “no measurable activity”.

B2: caspase 8 (Homo sapiens) (protein)
chain 1: SPREQDSESQTLDKVYQMKSKPRGYCLIINNHNFAKAREKVPKLHSIRDRNGTHLDAGALTTTFEELHFEIKPHDDCTVEQIYEILKIYQLMDHSNMDCFICCILSHGDKGIIYGTDGQEAPIYELTSQFTGLKCPSLAGKPKVFFIQACQGDNYQKGIPVETD
chain 2: LSSPQTRYIPDEADFLLGMATVNNCVSYRNPAEGTWYIQSLCQSLRERCPRGDDILTILTEVNYEVSNKDDKKNMGKQMPQPTFTLRKKLVFPSD
notes: the 19 kDa peptide (S ^18PREQD . . . IPVETD^181); the 11 kDa chain (L^192SSPQ . . . LVFPSD^286); (His)6 (MRGS(H)6 leader, 12-residue prosegment from pQE30) (N, cleaved yes); made in house; host or cells: E. coli M15 (pREP4), vector pQE30
In the case of B2, the Km in series [2] turned out to be 167 µM.

Broadly, the Km is the concentration of substrate that gives half-maximal velocity.
